Experimental findings from patent US20220144956A1 (published 2022) are described below.

Experiment [1] concerns the target Unstimulated Cyno CD3+ cells (cynomolgus monkey). In words: FACS cell binding; CD3+ cells; avid.
Experiment [2] deals with Unstimulated Cyno CD8 T cells (cynomolgus monkey). In words: FACS cell binding; CD8 T cells; avid.
Experiment [3] deals with Unstimulated Cyno CD4 T cells (cynomolgus monkey). In words: FACS cell binding; CD4 T cells; avid.
Experiment [4] concerns the target T1, His-tagged human CD5 antigen (human, UniProt P06127 25-372).
T1 chain: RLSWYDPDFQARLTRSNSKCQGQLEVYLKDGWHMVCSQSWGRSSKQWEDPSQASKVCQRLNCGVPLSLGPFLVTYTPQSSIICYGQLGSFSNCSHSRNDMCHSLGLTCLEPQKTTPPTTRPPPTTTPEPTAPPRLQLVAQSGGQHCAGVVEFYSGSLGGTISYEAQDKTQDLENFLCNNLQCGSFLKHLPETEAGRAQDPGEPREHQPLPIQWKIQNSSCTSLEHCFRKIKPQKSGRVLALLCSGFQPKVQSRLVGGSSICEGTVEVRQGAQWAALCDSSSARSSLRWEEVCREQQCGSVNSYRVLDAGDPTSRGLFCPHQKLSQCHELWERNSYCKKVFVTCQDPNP
The experiment in a line: Octet.

Experiment [5] deals with human TGFßRII (antigen of the Octet experiments) (human, UniProt P37173 23-166).
Sequence of human TGFßRII (antigen of the Octet experiments) (P37173 23-166): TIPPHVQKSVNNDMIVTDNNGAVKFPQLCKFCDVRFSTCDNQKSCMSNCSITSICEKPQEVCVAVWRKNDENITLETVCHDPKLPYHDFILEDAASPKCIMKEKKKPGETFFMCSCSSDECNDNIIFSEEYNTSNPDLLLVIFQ

B1: XENP35401 anti-CD5 clone 5D7 Bivalent (antibody, V domains shown)
VH: EVQLVESGGGVVQPGRSLRLSCTFSGFSLSTSGMGVGWIRQAPGKGLEWVAHIWWDDDVYYNPSLKSRLTITKDASTDTVYMELSSLRSEDTAVYYCVRRRATGTGFDYWGQGTLVTVSS
VL: NIVMTQSPSSLSASVGDRVTITCQASQDVGTAVAWYQQKPDQSPKLLIYWTSTRHTGVPDRFTGSGSGTDFTLTISSLQPEDIATYFCHQYNSYNTFGSGTKLEIKR
Consider B1, for which the EC50 (as a rule, the concentration at which the effect is half-maximal) came out at 0.508 µg/mL in experiment [1], 0.415 µg/mL in experiment [2] and 0.584 µg/mL in experiment [3].

B2: XENP35399 (bispecific antibody)
heavy: EVQLVESGGGVVQPGRSLRLSCTFSGFSLSTSGMGVGWIRQAPGKGLEWVAHIWWDDDVYYNPSLKSRLTITKDASTDTVYMELSSLRSEDTAVYYCVRRRATGTGFDYWGQGTLVTVSSASTKGPSVFPLAPSSKSTSGGTAALGCLVKDYFPEPVTVSWNSGALTSGVHTFPAVLQSSGLYSLSSVVTVPSSSLGTQTYICNVNHKPSDTKVDKKVEPKSCDKTHTCPPCPAPPVAGPSVFLFPPKPKDTLMISRTPEVTCVVVDVKHEDPEVKFNWYVDGVEVHNAKTKPREEEYNSTYRVVSVLTVLHQDWLNGKEYKCKVSNKALPAPIEKTISKAKGQPREPQVYTLPPSREEMTKNQVSLTCDVSGFYPSDIAVEWESDGQPENNYKTTPPVLDSDGSFFLYSKLTVDKSRWEQGDVFSCSVMHEALHNHYTQKSLSLSPGK
scFv-Fc: QLQVQESGPGLVKPSETLSLTCTVSGGSISNSYFSWGWIRQPPGKGLEWIGSFYYGEKTYYNPSLKSRATISIDTSKSQFSLKLSSVTAADTAVYYCPRGPTVIRGVIDSWGQGTLVTVSSGKPGSGKPGSGKPGSGKPGSEIVLTQSPATLSLSPGERATLSCRASQSVRSYLAWYQQKPGQAPRLLIYDASNRATGIPARFSGSGSGTDFTLTISSLEPEDFAVYYCQQRSNWPPTFGQGTKVEIKEPKSSDKTHTCPPCPAPPVAGPSVFLFPPKPKDTLMISRTPEVTCVVVDVKHEDPEVKFNWYVDGVEVHNAKTKPREEQYNSTYRVVSVLTVLHQDWLNGKEYKCKVSNKALPAPIEKTISKAKGQPREPQVYTLPPSREQMTKNQVKLTCLVKGFYPSDIAVEWESNGQPENNYKTTPPVLDSDGSFFLYSKLTVDKSRWQQGNVFSCSVMHEALHNHYTQKSLSLSPGK
light: NIVMTQSPSSLSASVGDRVTITCQASQDVGTAVAWYQQKPDQSPKLLIYWTSTRHTGVPDRFTGSGSGTDFTLTISSLQPEDIATYFCHQYNSYNTFGSGTKLEIKRTVAAPSVFIFPPSDEQLKSGTASVVCLLNNFYPREAKVQWKVDNALQSGNSQESVTEQDSKDSTYSLSSTLTLSKADYEKHKVYACEVTHQGLSSPVTKSFNRGEC
B2: the Kd (as a rule, the constant that tells how readily two partners part at equilibrium) was 1.69 nM in experiment [4] and 0.97 nM in experiment [5].

B3: XENP36132 (bispecific antibody)
heavy: EVQLVESGGGVVQPGRSLRLSCTFSGFSLSTSGMGVGWIRQAPGKGLEWVAHIWWDDDVYYNPSLKSRLTITKDASTDTVYMELSSLRSEDTAVYYCVRRRATGTGFDYWGQGTLVTVSSASTKGPSVFPLAPSSKSTSGGTAALGCLVKDYFPEPVTVSWNSGALTSGVHTFPAVLQSSGLYSLSSVVTVPSSSLGTQTYICNVNHKPSDTKVDKKVEPKSCDKTHTCPPCPAPPVAGPSVFLFPPKPKDTLMISRTPEVTCVVVDVKHEDPEVKFNWYVDGVEVHNAKTKPREEEYNSTYRVVSVLTVLHQDWLNGKEYKCKVSNKALPAPIEKTISKAKGQPREPQVYTLPPSREEMTKNQVSLTCDVSGFYPSDIAVEWESDGQPENNYKTTPPVLDSDGSFFLYSKLTVDKSRWEQGDVFSCSVMHEALHNHYTQKSLSLSPGK
scFv-Fc: QLQVQESGPGLVKPSETLSLTCTVSGGSISNSYFYWGWIRQPPGKGLEWIGSFYYGEKTYYNPSLKSRATISIDTSKSQFSLKLSSVTAADTAVYYCPRGPTMIRGVIDSWGQGTLVTVSSGKPGSGKPGSGKPGSGKPGSEIVLTQSPATLSLSPGERATLSCRASQSVRSYLAWYQQKPGQAPRLLIYDASNRATGIPARFSGSGSGTDFTLTISSLEPEDFAVYYCQQRSNWPPTFGQGTKVEIKEPKSSDKTHTCPPCPAPPVAGPSVFLFPPKPKDTLMISRTPEVTCVVVDVKHEDPEVKFNWYVDGVEVHNAKTKPREEQYNSTYRVVSVLTVLHQDWLNGKEYKCKVSNKALPAPIEKTISKAKGQPREPQVYTLPPSREQMTKNQVKLTCLVKGFYPSDIAVEWESNGQPENNYKTTPPVLDSDGSFFLYSKLTVDKSRWQQGNVFSCSVMHEALHNHYTQKSLSLSPGK
light: NIVMTQSPSSLSASVGDRVTITCQASQDVGTAVAWYQQKPDQSPKLLIYWTSTRHTGVPDRFTGSGSGTDFTLTISSLQPEDIATYFCHQYNSYNTFGSGTKLEIKRTVAAPSVFIFPPSDEQLKSGTASVVCLLNNFYPREAKVQWKVDNALQSGNSQESVTEQDSKDSTYSLSSTLTLSKADYEKHKVYACEVTHQGLSSPVTKSFNRGEC
In turn, B3 showed a Kd in experiment [5] of 6.1 nM.

B4: XENP37385 (bispecific antibody)
heavy: EVQLKESGAELVRPGGSVKISCKGSGYTFTNFAIHWVKQSHIKTLEWIGLISTSSGDVSYNQKFKDKATMTVDKSSSTAYMELARLTSEDSAIYYCARHYGANNYFDYWGQGTLVTVSSASTKGPSVFPLAPSSKSTSGGTAALGCLVKDYFPEPVTVSWNSGALTSGVHTFPAVLQSSGLYSLSSVVTVPSSSLGTQTYICNVNHKPSDTKVDKKVEPKSCDKTHTCPPCPAPPVAGPSVFLFPPKPKDTLMISRTPEVTCVVVDVKHEDPEVKFNWYVDGVEVHNAKTKPREEEYNSTYRVVSVLTVLHQDWLNGKEYKCKVSNKALPAPIEKTISKAKGQPREPQVYTLPPSREEMTKNQVSLTCDVSGFYPSDIAVEWESDGQPENNYKTTPPVLDSDGSFFLYSKLTVDKSRWEQGDVFSCSVMHEALHNHYTQKSLSLSPGK
scFv-Fc: QLQVQESGPGLVKPSETLSLTCTVSGGSISNSYFSWGWIRQPPGKGLEWIGSFYYGEKTYYNPSLKSRATISIDTSKSQFSLKLSSVTAADTAVYYCPRGPTVIRGVIDSWGQGTLVTVSSGKPGSGKPGSGKPGSGKPGSEIVLTQSPATLSLSPGERATLSCRASQSVRSYLAWYQQKPGQAPRLLIYDASNRATGIPARFSGSGSGTDFTLTISSLEPEDFAVYYCQQRSNWPPTFGQGTKVEIKEPKSSDKTHTCPPCPAPPVAGPSVFLFPPKPKDTLMISRTPEVTCVVVDVKHEDPEVKFNWYVDGVEVHNAKTKPREEQYNSTYRVVSVLTVLHQDWLNGKEYKCKVSNKALPAPIEKTISKAKGQPREPQVYTLPPSREQMTKNQVKLTCLVKGFYPSDIAVEWESNGQPENNYKTTPPVLDSDGSFFLYSKLTVDKSRWQQGNVFSCSVMHEALHNHYTQKSLSLSPGK
light: EIVLTQSPTIMSASPGEQVTMTCRTNSSVSSSYLHWYQQKSGASPKLWIYGTSNLASGVPTRFSGSGSGTSYSLTISSVEAGDAATYFCQQYSGYPLTFGGGTKVEIKRTVAAPSVFIFPPSDEQLKSGTASVVCLLNNFYPREAKVQWKVDNALQSGNSQESVTEQDSKDSTYSLSSTLTLSKADYEKHKVYACEVTHQGLSSPVTKSFNRGEC
Regarding B4, in experiment [4], the Kd is 6.67 nM.
